Measurements as given in PMC10786891, “Massively parallel profiling of RNA-targeting CRISPR-Cas13d”.

T1: EsCas13d, nuclease-dead (Eubacterium siraeum, UniProt B0MS50, R295A;H300A;R849A;H854A)
T1 sequence: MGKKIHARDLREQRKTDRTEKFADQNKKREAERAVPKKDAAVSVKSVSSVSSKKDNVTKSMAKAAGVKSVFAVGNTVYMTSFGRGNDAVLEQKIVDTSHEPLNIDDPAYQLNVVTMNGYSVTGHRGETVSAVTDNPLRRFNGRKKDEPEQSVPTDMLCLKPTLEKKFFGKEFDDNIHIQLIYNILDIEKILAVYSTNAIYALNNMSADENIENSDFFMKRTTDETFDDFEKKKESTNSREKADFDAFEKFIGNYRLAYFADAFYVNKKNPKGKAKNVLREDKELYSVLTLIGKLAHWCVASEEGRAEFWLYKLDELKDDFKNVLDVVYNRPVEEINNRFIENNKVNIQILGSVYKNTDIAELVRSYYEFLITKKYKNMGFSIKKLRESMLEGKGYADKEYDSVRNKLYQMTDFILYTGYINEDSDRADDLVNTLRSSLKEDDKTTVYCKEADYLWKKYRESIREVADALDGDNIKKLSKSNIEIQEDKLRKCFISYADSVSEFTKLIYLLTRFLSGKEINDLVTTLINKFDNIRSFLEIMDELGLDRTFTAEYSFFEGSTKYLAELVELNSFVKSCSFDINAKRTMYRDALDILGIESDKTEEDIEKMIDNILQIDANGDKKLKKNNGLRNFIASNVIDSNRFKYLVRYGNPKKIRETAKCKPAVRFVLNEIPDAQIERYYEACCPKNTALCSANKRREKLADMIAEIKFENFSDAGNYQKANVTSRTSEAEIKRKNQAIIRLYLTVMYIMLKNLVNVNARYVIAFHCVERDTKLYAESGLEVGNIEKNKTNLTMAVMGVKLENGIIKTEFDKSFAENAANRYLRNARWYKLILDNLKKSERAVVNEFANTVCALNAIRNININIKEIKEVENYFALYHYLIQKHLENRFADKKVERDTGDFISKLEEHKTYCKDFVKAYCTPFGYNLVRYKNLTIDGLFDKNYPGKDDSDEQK


Target: T1, EsCas13d, nuclease-dead
Experiment: crRNA (strand 1, pre-loaded); Mg2+; 40 mM Tris-HCl pH 7.5, 150 mM NaCl, 6 mM MgCl2, 1 mM DTT, 0.1% Tween-20, 0.2 mg/ml BSA; 25 C; 10 min per concentration, then washed
Details: tags: His6-TwinStrep-SUMO cleaved; N-terminal SNAP kept (SNAP-Surface 488); label: 3' end held by stalled T7 RNA polymerase

Binder | Kd [nM]
target 1 MT 5'PFS CUU 3'PFS AGU (mixed) RNA 1: CACCCGUGCAAAAAUGCAGGGGUCUAAAACUGAGCGGAUAACCUCUCUAUGG RNA 2: GGGAAUGGAUCCACAUCUACGAAUUCCUUCCAUAGAGAGGUUAUCCGCUCAAGUAGAUCGGAAGAGCACACGU | 48 ± 12.5
target 1 MT 5'PFS GUA 3'PFS ACC (mixed) RNA 1: CACCCGUGCAAAAAUGCAGGGGUCUAAAACUGAGCGGAUAACCUCUCUAUGG RNA 2: GGGAAUGGAUCCACAUCUACGAAUUCGUACCAUAGAGAGGUUAUCCGCUCAACCAGAUCGGAAGAGCACACGU | 7.95 ± 0.8
target 1 MT 5'PFS ACA 3'PFS UCU (mixed) RNA 1: CACCCGUGCAAAAAUGCAGGGGUCUAAAACUGAGCGGAUAACCUCUCUAUGG RNA 2: GGGAAUGGAUCCACAUCUACGAAUUCACACCAUAGAGAGGUUAUCCGCUCAUCUAGAUCGGAAGAGCACACGU | 7.4 ± 2.8
target 1 MT 5'PFS UGU 3'PFS CCG (mixed) RNA 1: CACCCGUGCAAAAAUGCAGGGGUCUAAAACUGAGCGGAUAACCUCUCUAUGG RNA 2: GGGAAUGGAUCCACAUCUACGAAUUCUGUCCAUAGAGAGGUUAUCCGCUCACCGAGAUCGGAAGAGCACACGU | 34.5 ± 13.5
target 1 MT 5'PFS GAC 3'PFS CAC (mixed) RNA 1: CACCCGUGCAAAAAUGCAGGGGUCUAAAACUGAGCGGAUAACCUCUCUAUGG RNA 2: GGGAAUGGAUCCACAUCUACGAAUUCGACCCAUAGAGAGGUUAUCCGCUCACACAGAUCGGAAGAGCACACGU | 61 ± 21.5
target 1 MT 5'PFS GUA 3'PFS ACG (mixed) RNA 1: CACCCGUGCAAAAAUGCAGGGGUCUAAAACUGAGCGGAUAACCUCUCUAUGG RNA 2: GGGAAUGGAUCCACAUCUACGAAUUCGUACCAUAGAGAGGUUAUCCGCUCAACGAGAUCGGAAGAGCACACGU | 11 ± 0.92
target 1 MT 5'PFS GAC 3'PFS ACU (mixed) RNA 1: CACCCGUGCAAAAAUGCAGGGGUCUAAAACUGAGCGGAUAACCUCUCUAUGG RNA 2: GGGAAUGGAUCCACAUCUACGAAUUCGACCCAUAGAGAGGUUAUCCGCUCAACUAGAUCGGAAGAGCACACGU | 14 ± 5
target 1 MT 5'PFS UCC 3'PFS AAA (mixed) RNA 1: CACCCGUGCAAAAAUGCAGGGGUCUAAAACUGAGCGGAUAACCUCUCUAUGG RNA 2: GGGAAUGGAUCCACAUCUACGAAUUCUCCCCAUAGAGAGGUUAUCCGCUCAAAAAGAUCGGAAGAGCACACGU | ~23.5
target 1 MT 5'PFS GUA 3'PFS ACA (mixed) RNA 1: CACCCGUGCAAAAAUGCAGGGGUCUAAAACUGAGCGGAUAACCUCUCUAUGG RNA 2: GGGAAUGGAUCCACAUCUACGAAUUCGUACCAUAGAGAGGUUAUCCGCUCAACAAGAUCGGAAGAGCACACGU | 17.6 ± 1.45
target 1 MT 5'PFS UCG 3'PFS CAU (mixed) RNA 1: CACCCGUGCAAAAAUGCAGGGGUCUAAAACUGAGCGGAUAACCUCUCUAUGG RNA 2: GGGAAUGGAUCCACAUCUACGAAUUCUCGCCAUAGAGAGGUUAUCCGCUCACAUAGAUCGGAAGAGCACACGU | ~80
target 1 MT 5'PFS GAC 3'PFS ACC (mixed) RNA 1: CACCCGUGCAAAAAUGCAGGGGUCUAAAACUGAGCGGAUAACCUCUCUAUGG RNA 2: GGGAAUGGAUCCACAUCUACGAAUUCGACCCAUAGAGAGGUUAUCCGCUCAACCAGAUCGGAAGAGCACACGU | 75.5 ± 37.5
target 1 MT 5'PFS GAC 3'PFS ACG (mixed) RNA 1: CACCCGUGCAAAAAUGCAGGGGUCUAAAACUGAGCGGAUAACCUCUCUAUGG RNA 2: GGGAAUGGAUCCACAUCUACGAAUUCGACCCAUAGAGAGGUUAUCCGCUCAACGAGAUCGGAAGAGCACACGU | 16.7 ± 3.95
target 1 MT 5'PFS GUA 3'PFS ACU (mixed) RNA 1: CACCCGUGCAAAAAUGCAGGGGUCUAAAACUGAGCGGAUAACCUCUCUAUGG RNA 2: GGGAAUGGAUCCACAUCUACGAAUUCGUACCAUAGAGAGGUUAUCCGCUCAACUAGAUCGGAAGAGCACACGU | 10.6 ± 0.75
target 1 MT 5'PFS AAA 3'PFS UAG (mixed) RNA 1: CACCCGUGCAAAAAUGCAGGGGUCUAAAACUGAGCGGAUAACCUCUCUAUGG RNA 2: GGGAAUGGAUCCACAUCUACGAAUUCAAACCAUAGAGAGGUUAUCCGCUCAUAGAGAUCGGAAGAGCACACGU | 12.9 ± 2.25
target 1 A18C,C22A (mixed) RNA 1: CACCCGUGCAAAAAUGCAGGGGUCUAAAACUGAGCGGAUAACCUCUCUAUGG RNA 2: GGGAAUGGAUCCACAUCUACGAAUUCGUAACAUCGAGAGGUUAUCCGCUCACCGAGAUCGGAAGAGCACACGU | 67 ± 13
target 1 MT 5'PFS GAC 3'PFS CAU (mixed) RNA 1: CACCCGUGCAAAAAUGCAGGGGUCUAAAACUGAGCGGAUAACCUCUCUAUGG RNA 2: GGGAAUGGAUCCACAUCUACGAAUUCGACCCAUAGAGAGGUUAUCCGCUCACAUAGAUCGGAAGAGCACACGU | 21.5 ± 8
target 1 MT 5'PFS UCG 3'PFS CAC (mixed) RNA 1: CACCCGUGCAAAAAUGCAGGGGUCUAAAACUGAGCGGAUAACCUCUCUAUGG RNA 2: GGGAAUGGAUCCACAUCUACGAAUUCUCGCCAUAGAGAGGUUAUCCGCUCACACAGAUCGGAAGAGCACACGU | ~43.5
target 1 MT 5'PFS ACA 3'PFS UCG (mixed) RNA 1: CACCCGUGCAAAAAUGCAGGGGUCUAAAACUGAGCGGAUAACCUCUCUAUGG RNA 2: GGGAAUGGAUCCACAUCUACGAAUUCACACCAUAGAGAGGUUAUCCGCUCAUCGAGAUCGGAAGAGCACACGU | 7.7 ± 1.55
target 1 MT 5'PFS GAA 3'PFS UUG (mixed) RNA 1: CACCCGUGCAAAAAUGCAGGGGUCUAAAACUGAGCGGAUAACCUCUCUAUGG RNA 2: GGGAAUGGAUCCACAUCUACGAAUUCGAACCAUAGAGAGGUUAUCCGCUCAUUGAGAUCGGAAGAGCACACGU | 12.8 ± 2.6
target 1 MT 5'PFS GAC 3'PFS ACA (mixed) RNA 1: CACCCGUGCAAAAAUGCAGGGGUCUAAAACUGAGCGGAUAACCUCUCUAUGG RNA 2: GGGAAUGGAUCCACAUCUACGAAUUCGACCCAUAGAGAGGUUAUCCGCUCAACAAGAUCGGAAGAGCACACGU | ~46
target 1 MT 5'PFS CAC 3'PFS CAA (mixed) RNA 1: CACCCGUGCAAAAAUGCAGGGGUCUAAAACUGAGCGGAUAACCUCUCUAUGG RNA 2: GGGAAUGGAUCCACAUCUACGAAUUCCACCCAUAGAGAGGUUAUCCGCUCACAAAGAUCGGAAGAGCACACGU | 12 ± 6
target 1 insU 3' of 17,insA 3' of 5 (mixed) RNA 1: CACCCGUGCAAAAAUGCAGGGGUCUAAAACUGAGCGGAUAACCUCUCUAUGG RNA 2: GGGAAUGGAUCCACAUCUACGAAUUCGUACCAUAGUAGAGGUUAUCCGACUCACCGAGAUCGGAAGAGCACACGU | 19 ± 4
target 1 MT 5'PFS GAA 3'PFS UUA (mixed) RNA 1: CACCCGUGCAAAAAUGCAGGGGUCUAAAACUGAGCGGAUAACCUCUCUAUGG RNA 2: GGGAAUGGAUCCACAUCUACGAAUUCGAACCAUAGAGAGGUUAUCCGCUCAUUAAGAUCGGAAGAGCACACGU | 16 ± 2.15
target 1 MT 5'PFS GAC 3'PFS CAA (mixed) RNA 1: CACCCGUGCAAAAAUGCAGGGGUCUAAAACUGAGCGGAUAACCUCUCUAUGG RNA 2: GGGAAUGGAUCCACAUCUACGAAUUCGACCCAUAGAGAGGUUAUCCGCUCACAAAGAUCGGAAGAGCACACGU | 25.5 ± 8.5
target 1 MT 5'PFS UAG 3'PFS UAA (mixed) RNA 1: CACCCGUGCAAAAAUGCAGGGGUCUAAAACUGAGCGGAUAACCUCUCUAUGG RNA 2: GGGAAUGGAUCCACAUCUACGAAUUCUAGCCAUAGAGAGGUUAUCCGCUCAUAAAGAUCGGAAGAGCACACGU | 21.4 ± 4.8
target 1 MT 5'PFS UCG 3'PFS CAA (mixed) RNA 1: CACCCGUGCAAAAAUGCAGGGGUCUAAAACUGAGCGGAUAACCUCUCUAUGG RNA 2: GGGAAUGGAUCCACAUCUACGAAUUCUCGCCAUAGAGAGGUUAUCCGCUCACAAAGAUCGGAAGAGCACACGU | ~44
target 1 MT 5'PFS GAA 3'PFS UUC (mixed) RNA 1: CACCCGUGCAAAAAUGCAGGGGUCUAAAACUGAGCGGAUAACCUCUCUAUGG RNA 2: GGGAAUGGAUCCACAUCUACGAAUUCGAACCAUAGAGAGGUUAUCCGCUCAUUCAGAUCGGAAGAGCACACGU | 51 ± 21
target 1 MT 5'PFS GAA 3'PFS UUU (mixed) RNA 1: CACCCGUGCAAAAAUGCAGGGGUCUAAAACUGAGCGGAUAACCUCUCUAUGG RNA 2: GGGAAUGGAUCCACAUCUACGAAUUCGAACCAUAGAGAGGUUAUCCGCUCAUUUAGAUCGGAAGAGCACACGU | 15.3 ± 2.75
